Patent US20200179510A1 (YALE UNIVERSITY, published 2020)

Target: T1, Recombinant mouse DKK1 protein (R&D) (mouse, UniProt O54908 32-272, limits assumed)
T1 construct: Bought recombinant protein, coated on the ELISA plate at 20 ng/ml
T1 sequence (looked up): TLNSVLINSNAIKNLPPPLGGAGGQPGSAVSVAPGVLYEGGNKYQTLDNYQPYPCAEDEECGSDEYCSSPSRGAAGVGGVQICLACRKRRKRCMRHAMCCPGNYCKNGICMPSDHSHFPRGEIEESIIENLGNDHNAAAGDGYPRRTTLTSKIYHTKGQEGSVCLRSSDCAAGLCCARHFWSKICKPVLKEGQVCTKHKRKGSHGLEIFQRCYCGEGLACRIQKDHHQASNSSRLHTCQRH
Assay: ELISA, recombinant mouse DKK1 coated at 20 ng/ml
Procedure: Recombinant mouse DKK2 or DKK1 protein (20 ng/ml, R&D) in a blocking buffer (1% BSA in PBS) was incubated in a 384-well microtiter plate for overnight at 4° C. The plate was washed with PBS twice and incubated with the blocking buffer for one hour at room temperature. The plate was then incubated with the anti-DKK2 5F8 antibody in the blocking buffer for 1 hour at room temperature. After repeatedly washing, the plate was incubated with an HRP-conjugated secondary antibody for 1 hour at room temperature. A chemiluminance substrate (Thermo Fisher 37070) was added to the plate, and the plate was read by an EnVision plate reader.

B1: Mouse monoclonal antibody to DKK2 (5F8) (antibody, V domains shown)
VH: GAELVRPGASVKLSCKASGYSFTNYWMNWVKQRPGQGLEWIGMIHPSDSETRLNQKFKDKATLTVDKSSSTAYMQLSSPTSEDSAVYYCAREGRLGLRSYAMDYWGQGTSVTVSS
VL: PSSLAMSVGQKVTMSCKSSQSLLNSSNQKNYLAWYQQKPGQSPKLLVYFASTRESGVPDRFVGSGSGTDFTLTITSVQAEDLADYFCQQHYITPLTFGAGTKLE
notes: Mouse hybridoma antibody; IgG3 served as its isotype control; also called anti-DKK2 5F8 antibody; anti-DKK2 antibody 5F8
binding result: no binding
